The values that follow are results of earlier work, collected in patent publication US10500169B2, “Supression of IgE production by compounds derived from traditional chinese medicine” (Sean N. Parker Foundation, priority 2014, dated 2019).

For the data set, the system named is peanut allergic patients.

B1: TNX-901: anti-IgE antibody (antibody, chains of the INN, looked up, V domains shown)
VH: QVQLVQSGAEVKKPGASVKVSCKASGYTFSMYWLEWVRQAPGHGLEWVGEISPGTFTTNYNEKFKARATFTADTSTNTAYMELSSLRSEDTAVYYCARFSHFSGSNYDYFDYWGQGTLVTVSS
VL: DILLTQSPGTLSLSPGERATLSCRASQSIGTNIHWYQQKPGQAPRLLIKYASESISGIPSRFSGSGSGTDFTLTISRLEPEDFAMYYCQQSDSWPTTFGQGTKVEIK
For the molecule B1, the “median threshold of sensitivity to peanut after treatment” value (increased from 178 mg peanut protein) is recorded as 2.8 grams. Where the note is “vs placebo group”, the “symptoms following peanut challenge” value was “significant decrease in symptoms”.
